Source: PMC3558595 (Integrative biology : quantitative biosciences from nano to …, 2013)

Biological target: the molecule itself
Experiment: FRET or BRET

B1: Wzm, transmembrane protein of the A-band polysaccharide ABC transporter of Pseudomonas aeruginosa, fused to GFP2 or YFP (natural protein, Pseudomonas aeruginosa PAO1, UniProt Q9HTB8 1-265, looked up)
chain: MLLGLSRSLWGYRGFVLGSVKREFQSRYRGSLFGALWTVLNPLSMIVVYTVIFSQVMRARLPGVDDGLAYSVYLCAGLLTWGLFAEITSRSQSMFIENANLLKKISFPRICLPVIVLLNAGVNFAIILALFLGFLALSGRLPGAALLALVPLLAIQVLFAAGLGMILGVLNVFFRDVGQLFGICLQFWFWLTPIVYPIGILPEGIRSLIELNPMTALMRSYQQLFLHGQWPDWPSLLPITLLALLLCALGLRLFRQRVGEMVDEL
  stoichiometry N: 4
